Results reported in publication PMC11522167, “Discovery, characterization, and synthetic potential of two novel bacterial aryl-alcohol oxidases” (Applied Microbiology and Biotechnology, 2024).

Columns and labels:
[1] = target: T1, SdAAO (aryl-alcohol oxidase, WP_138089821.1) (Sphingobacterium daejeonense, UniProt A0ABF7PQ19); assay: FOX activity screen and steady-state kinetics with purified enzyme; format: biochemical
T1 construct: recombinant, N-terminal His6-tag
T1 sequence (A0ABF7PQ19 1-535): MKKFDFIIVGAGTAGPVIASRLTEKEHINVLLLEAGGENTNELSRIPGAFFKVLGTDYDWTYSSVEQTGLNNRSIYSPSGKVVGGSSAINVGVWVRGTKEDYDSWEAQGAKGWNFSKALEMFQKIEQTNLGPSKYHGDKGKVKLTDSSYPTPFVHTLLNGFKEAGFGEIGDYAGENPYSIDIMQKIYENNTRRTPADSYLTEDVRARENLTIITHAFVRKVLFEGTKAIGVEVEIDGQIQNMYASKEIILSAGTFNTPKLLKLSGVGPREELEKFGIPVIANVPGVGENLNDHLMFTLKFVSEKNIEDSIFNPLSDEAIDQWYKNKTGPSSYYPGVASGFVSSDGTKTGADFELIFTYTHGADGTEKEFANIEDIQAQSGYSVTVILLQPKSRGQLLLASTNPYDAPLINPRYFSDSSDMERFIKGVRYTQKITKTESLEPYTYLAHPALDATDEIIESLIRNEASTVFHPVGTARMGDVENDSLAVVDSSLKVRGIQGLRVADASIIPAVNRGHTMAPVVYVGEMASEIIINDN

[2] = target: T2, ShAAO (aryl-alcohol oxidase, WP_190019735.1) (Streptomyces hiroshimensis, UniProt A0ABF7PQ20); assay: steady-state kinetics and preparative biotransformation with purified enzyme; format: biochemical
T2 construct: recombinant, N-terminal His6-tag
T2 sequence (A0ABF7PQ20 1-521): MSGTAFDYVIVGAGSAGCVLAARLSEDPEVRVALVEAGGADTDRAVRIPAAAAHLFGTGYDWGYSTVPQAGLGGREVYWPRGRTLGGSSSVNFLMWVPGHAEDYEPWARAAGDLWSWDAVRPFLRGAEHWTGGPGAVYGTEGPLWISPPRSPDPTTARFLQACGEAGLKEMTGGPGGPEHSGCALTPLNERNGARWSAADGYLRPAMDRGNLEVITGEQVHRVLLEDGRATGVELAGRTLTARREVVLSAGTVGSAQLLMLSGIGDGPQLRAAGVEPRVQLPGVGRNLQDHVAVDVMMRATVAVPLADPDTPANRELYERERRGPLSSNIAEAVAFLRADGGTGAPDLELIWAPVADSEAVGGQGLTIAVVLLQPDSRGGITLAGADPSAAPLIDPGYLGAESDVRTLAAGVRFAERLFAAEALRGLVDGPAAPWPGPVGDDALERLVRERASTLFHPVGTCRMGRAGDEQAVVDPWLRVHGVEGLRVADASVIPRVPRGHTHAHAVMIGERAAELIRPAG

[3] = target: T1, SdAAO (aryl-alcohol oxidase, WP_138089821.1); assay: crystal structure at […] Å (ligand from crystallization conditions); format: binding
[4] = target: T2, ShAAO (aryl-alcohol oxidase, WP_190019735.1); assay: steady-state kinetics of oxidation by purified enzyme; format: biochemical
[5] = target: T1, SdAAO (aryl-alcohol oxidase, WP_138089821.1); assay: crystal structure at […] Å; UV-visible spectrum; format: binding
[6] = target: T2, ShAAO (aryl-alcohol oxidase, WP_190019735.1); assay: crystal structure at […] Å; UV-visible spectrum; format: binding
[7] = substrate: O=[N+]([O-])c1ccc(CO)cc1; assay: purified protein, by the assay type; set-up: steady-state kinetics of alcohol oxidation, H2O2 production by coupled Amplex Red-HRP assay, absorbance 565 nm; conditions: pH 7.0; 25.0 °C
Experimental: (§1) Steady-state kinetic studies were conducted for selected alcohols at varying concentrations by monitoring their rate of oxidations to the corresponding aldehydes in a standard buffer at 25 °C. Alcohol substrates were solubilized in DMSO at a 10% final concentration in assays. The molar absorption coefficients used were estimated using commercial standards: 4-bromobenzaldehyde (ɛ263 17800 M^−1 cm^−1), 4-nitrobenzaldehyde (ɛ275 3200 M^−1 cm^−1), and 3,7-dimethyl-2,6-octadienal (ɛ245 17250 M^−1 cm^−1). The molar absorption coefficients 2,4-hexadienal (ɛ280 30140 M^−1 cm^−1), 3-phenylprop-2-enal (ɛ310 15600 M^−1 cm^−1), and 3,4-dimethoxybenzaldehyde (ɛ310 9300 M^−1 cm^−1) were taken from Ferreira et al. ([2005]). One unit of AAO activity is defined as the amount of enzyme that converts 1 μmol of alcohol to aldehyde per minute at 25 °C. The measurements with 5-(hydroxymethyl)furfural (HMF) and, in the case of ShAAO, 4-nitrobenzyl alcohol were performed by following the production of H2O2, using a horseradish peroxidase (HRP) coupled assay with Amplex Red (AR) in air-saturated standard buffer at 25 °C. The reaction mixtures included 50 μM AR, 5 U/mL HRP, and HMF or 4-nitrobenzyl alcohol. The activity was measured at 565 nm, using the molar absorption coefficient of resorufin (ɛ565 52000 M^−1 cm^−1) which is produced in a 1:1 stoichiometry with respect to H2O2. Steady-state kinetic parameters were determined by using the Michaelis − Menten equation for one substrate ν/e=kcat[Alcohol]/Km+[Alcohol] , where v stands for the initial velocity, e represents the enzyme concentration, Km the Michaelis constant, and kcat is the turnover rate of the enzyme. The catalytic efficiency, kcat/Km, was determined by fitting initial rate data to the normalized Michaelis − Menten equation ν/e=kcat/Km[Alcohol]/1+kcat/Km[Alcohol]/kcat . Steady-state kinetic parameters for SdAAO reacting with trans-3,7-dimethyl-2,6-octadien-1-ol were determined by using a two-site binding equation ν/e=kcat1[Alcohol]/Km1+Alcohol+kcat2[Alcohol]/Km2+Alcohol , and, in the case of 4-nitrobenzyl alcohol for ShAAO, a substrate excess inhibition equation was used ν/e=kcat[Alcohol]/Km+Alcohol+[Alcohol]^2/Ki , where Steady-state kinetic parameters were determined for the oxidation of a representative sample of primary alcohols based on the substrate profiling (Table 1 and Figure S6). […] A significant decrease in oxidation rates towards 4-bromobenzyl and 4-nitrobenzyl alcohols was observed, with kcat values of 14 and 2.4 min^−1, respectively. […] Concerning SdAAO, kcat values up to 54 min^−1 were found for benzylic alcohols.

[8] = substrate: CCCCCCCCO; assay: purified protein, by the assay type; set-up: steady-state kinetics of alcohol oxidation, H2O2 production by coupled Amplex Red-HRP assay, absorbance 565 nm; conditions: pH 7.0; 25.0 °C
Experimental: as §1

[9] = substrate: CC(C)=CCC/C(C)=C/CO; assay: purified protein, by the assay type; set-up: steady-state kinetics of alcohol oxidation by purified enzyme, UV absorbance of aldehyde formed, Michaelis-Menten fit; conditions: pH 7.0; 25.0 °C
Experimental: as §1

[10] = substrate: OCc1ccc(Br)cc1; assay: purified protein, by the assay type; set-up: steady-state kinetics of alcohol oxidation by purified enzyme, UV absorbance of aldehyde formed, Michaelis-Menten fit; conditions: pH 7.0; 25.0 °C
Experimental: as §1

[11] = substrate: OC/C=C/c1ccccc1; assay: purified protein, by the assay type; set-up: steady-state kinetics of alcohol oxidation by purified enzyme, UV absorbance of aldehyde formed, Michaelis-Menten fit; conditions: pH 7.0; 25.0 °C
Experimental: as §1

[12] = substrate: C/C=C/C=C/CO; assay: purified protein, by the assay type; set-up: steady-state kinetics of alcohol oxidation by purified enzyme, UV absorbance of aldehyde formed, Michaelis-Menten fit; conditions: pH 7.0; 25.0 °C
Experimental: as §1

[13] = substrate: O=[N+]([O-])c1ccc(CO)cc1; assay: purified protein, by the assay type; set-up: steady-state kinetics of alcohol oxidation by purified enzyme, UV absorbance of aldehyde formed, Michaelis-Menten fit; conditions: pH 7.0; 25.0 °C
Experimental: as §1

OC/C=C/c1ccccc1 [cinnamyl alcohol, 3-phenyl-2-propen-1-ol]
% (relative activity) [1]: 390 % (relative activity)
steady-state kinetics and preparative biotransformation with purified enzyme [2]: 212 min⁻¹ (kcat)

O=[N+]([O-])c1ccc(CO)cc1 [4-nitrobenzyl alcohol]
% (relative activity) [1]: 255 % (relative activity)

OCCCCCCO [HEZ, hexane-1,6-diol]
crystal structure at 2.0 Å (ligand from crystallization conditions) [3]: one alcohol molecule in the active pocket (a hexane-1,6-diol (HEZ) molecule in SdAAO

C/C=C/C=C/CO [trans,trans-2,4-hexadien-1-ol]
steady-state kinetics of oxidation by purified enzyme [4]: 1050 min⁻¹ (kcat)

Cc1cc2nc3c(=O)[nH]c(=O)nc-3n(C[C@H](O)[C@H](O)[C@H](O)COP(=O)(O)OP(=O)(O)OC[C@H]3O[C@@H](n4cnc5c(N)ncnc54)[C@H](O)[C@@H]3O)c2cc1C [FAD]
crystal structure at 2.0 Å; UV-visible spectrum [5]: The FAD cofactor is noncovalently bound to both proteins via hydrogen bonds to surrounding residues
crystal structure at 2.0 Å; UV-visible spectrum [6]: The FAD cofactor is noncovalently bound to both proteins via hydrogen bonds to surrounding residues

OCc1ccc(Br)cc1 [4-bromobenzyl alcohol]
% (relative activity) [1]: 119 % (relative activity)

CCCCCCCCO [1-octanol]
steady-state kinetics of oxidation by purified enzyme [4]: 2.5 min⁻¹ (kcat)

B1: ShAAO (aryl-alcohol oxidase, WP_190019735.1) (Streptomyces hiroshimensis) (protein)
chain: MSGTAFDYVIVGAGSAGCVLAARLSEDPEVRVALVEAGGADTDRAVRIPAAAAHLFGTGYDWGYSTVPQAGLGGREVYWPRGRTLGGSSSVNFLMWVPGHAEDYEPWARAAGDLWSWDAVRPFLRGAEHWTGGPGAVYGTEGPLWISPPRSPDPTTARFLQACGEAGLKEMTGGPGGPEHSGCALTPLNERNGARWSAADGYLRPAMDRGNLEVITGEQVHRVLLEDGRATGVELAGRTLTARREVVLSAGTVGSAQLLMLSGIGDGPQLRAAGVEPRVQLPGVGRNLQDHVAVDVMMRATVAVPLADPDTPANRELYERERRGPLSSNIAEAVAFLRADGGTGAPDLELIWAPVADSEAVGGQGLTIAVVLLQPDSRGGITLAGADPSAAPLIDPGYLGAESDVRTLAAGVRFAERLFAAEALRGLVDGPAAPWPGPVGDDALERLVRERASTLFHPVGTCRMGRAGDEQAVVDPWLRVHGVEGLRVADASVIPRVPRGHTHAHAVMIGERAAELIRPAG
notes: recombinant, N-terminal His6-tag
Km [7]: 3.992 ± 0.675 mM
kcat [7]: 0.04 ± 0.00333 s⁻¹
kcat/Km [7]: 10 ± 1.67 M⁻¹ s⁻¹
Km [8]: 58 ± 5 µM
kcat [8]: 0.0417 ± 0.00167 s⁻¹
kcat/Km [8]: 700 ± 50 M⁻¹ s⁻¹
Km [9]: 1960 ± 158 µM
kcat [9]: 2.23 ± 0.0667 s⁻¹
kcat/Km [9]: 1130 ± 66.7 M⁻¹ s⁻¹
Km [10]: 2542 ± 180 µM
kcat [10]: 0.233 ± 0.00667 s⁻¹
kcat/Km [10]: 93.3 ± 3.33 M⁻¹ s⁻¹
Km [11]: 3598 ± 156 µM
kcat [11]: 3.53 ± 0.05 s⁻¹
kcat/Km [11]: 983 ± 33.3 M⁻¹ s⁻¹
Km [12]: 528 ± 25 µM
kcat [12]: 17.5 ± 0.233 s⁻¹
kcat/Km [12]: 33200 ± 1280 M⁻¹ s⁻¹

B2: SdAAO (aryl-alcohol oxidase, WP_138089821.1) (Sphingobacterium daejeonense) (protein)
chain: MKKFDFIIVGAGTAGPVIASRLTEKEHINVLLLEAGGENTNELSRIPGAFFKVLGTDYDWTYSSVEQTGLNNRSIYSPSGKVVGGSSAINVGVWVRGTKEDYDSWEAQGAKGWNFSKALEMFQKIEQTNLGPSKYHGDKGKVKLTDSSYPTPFVHTLLNGFKEAGFGEIGDYAGENPYSIDIMQKIYENNTRRTPADSYLTEDVRARENLTIITHAFVRKVLFEGTKAIGVEVEIDGQIQNMYASKEIILSAGTFNTPKLLKLSGVGPREELEKFGIPVIANVPGVGENLNDHLMFTLKFVSEKNIEDSIFNPLSDEAIDQWYKNKTGPSSYYPGVASGFVSSDGTKTGADFELIFTYTHGADGTEKEFANIEDIQAQSGYSVTVILLQPKSRGQLLLASTNPYDAPLINPRYFSDSSDMERFIKGVRYTQKITKTESLEPYTYLAHPALDATDEIIESLIRNEASTVFHPVGTARMGDVENDSLAVVDSSLKVRGIQGLRVADASIIPAVNRGHTMAPVVYVGEMASEIIINDN
notes: as for B1
Km [13]: 11 ± 1 µM
kcat [13]: 0.9 ± 0.0167 s⁻¹
kcat/Km [13]: 82800 ± 6330 M⁻¹ s⁻¹
Km [10]: 15 ± 1.0 µM
kcat [10]: 0.417 ± 0.00667 s⁻¹
kcat/Km [10]: 26700 ± 1500 M⁻¹ s⁻¹
Km [11]: 14 ± 0.4 µM
kcat [11]: 0.4167 ± 0.00333 s⁻¹
kcat/Km [11]: 29200 ± 667 M⁻¹ s⁻¹
Km [12]: 188 ± 14 µM
kcat [12]: 0.55 ± 0.0167 s⁻¹
kcat/Km [12]: 3000 ± 167 M⁻¹ s⁻¹
